Assay results reported in article PMC3769240.

Molecular target: Non-structural NS1 protein of human respiratory syncytial virus (hRSV) strain A (human respiratory syncytial virus strain A) (UniProt P0DOE9)
Test: dynamic light scattering; NS1SOs made by heat (10 minutes at 70°C in Tris 10 mM pH 8, DTT 1 mM); measured at 20°C

Substance: Non-structural NS1 protein of human respiratory syncytial virus (hRSV) strain A (from UniProt P0DOE9 1-139) (natural protein)
- stoichiometry N (NS1 monomers per molecule of oligomer): 149
